Source: patent US20190322705A1 (NORWEGIAN UNIVERSITY OF LIFE SCIENCES, published 2019)

T1: RseP of E. faecalis HExxH>AAxxA, expressed in S. pneumoniae ms5 (Enterococcus faecalis, UniProt Q9RPP2 1-422)
T1 sequence: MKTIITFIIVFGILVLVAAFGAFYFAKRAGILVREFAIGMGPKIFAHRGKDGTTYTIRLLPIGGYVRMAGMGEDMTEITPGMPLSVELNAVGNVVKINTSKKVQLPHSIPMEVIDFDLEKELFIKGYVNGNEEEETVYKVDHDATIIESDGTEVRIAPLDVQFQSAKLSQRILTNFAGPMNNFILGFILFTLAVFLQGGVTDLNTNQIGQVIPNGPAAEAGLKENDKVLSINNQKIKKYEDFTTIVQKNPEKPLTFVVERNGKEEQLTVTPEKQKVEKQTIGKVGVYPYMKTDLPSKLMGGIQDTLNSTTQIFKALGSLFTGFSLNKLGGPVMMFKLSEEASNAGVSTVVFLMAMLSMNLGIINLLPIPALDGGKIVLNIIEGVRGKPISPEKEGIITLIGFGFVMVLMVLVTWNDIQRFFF


What was measured:
Assay in all cases: cell-based or functional assay
[1] = biological target: RseP of E. faecalis E19>A, expressed in S. pneumoniae ms2 (Enterococcus faecalis) (UniProt Q9RPP2)
[2] = biological target: RseP of E. faecalis H18>A, expressed in S. pneumoniae ms1 (Enterococcus faecalis) (UniProt Q9RPP2)
[3] = biological target: RseP of E. faecalis H22>A, expressed in S. pneumoniae ms3 (Enterococcus faecalis) (UniProt Q9RPP2)
[4] = biological target: RseP of E. faecalis HExxH>AAxxA, expressed in S. pneumoniae ms5 (Enterococcus faecalis) (UniProt Q9RPP2)
[5] = biological target: RseP of E. faecalis LMGT3358 (WT rseP), expressed in S. pneumoniae ds220 (Enterococcus faecalis) (UniProt Q9RPP2)
[6] = biological target: RseP of E. faecalis Y24>A, expressed in S. pneumoniae ms4 (Enterococcus faecalis) (UniProt Q9RPP2)
[7] = biological target: T1, RseP of E. faecalis HExxH>AAxxA, …

Row | Molecule | MIC (nM), S. pneumoniae ms2 [1] | MIC (nM), S. pneumoniae ms1 [2] | MIC (nM), S. pneumoniae ms3 [3] | MIC (nM), S. pneumoniae ms5 [4] | MIC (nM), S. pneumoniae ds220 induced [5] | MIC (nM), S. pneumoniae ms4 [6] | fold resistance against the WT RseP strain [7]
1 | LsbB (peptide) | > 7000 nM | > 7000 nM | > 7000 nM | > 7000 nM | > 7000 nM | > 7000 nM | –
2 | MLAKIKAMIKKFPNPYTLAAKLTTYEINWYKQQYGRYPWERPVA [EntEJ97] | – | – | – | – | – | – | 30 times
